Key:
Assay in all cases: BLI; Octet RED; antibody (IgG, 10 µg/mL) immobilised on anti-human IgG Fc capture biosensors; antigen as analyte, six twofold dilutions from 2 µM (gp120 monomers) or 500 nM (BG505.SOSIP.664 trimer); 1X PBS, 0.1% BSA, 0.005% Tween-20, 0.02% sodium azide; 23°C; association 180 s, dissociation 180 s; double reference subtraction; global 1:1 fit
[1] = target: ∆CDR1VH heavy chain chimera paired with the mature light chain (human)
[2] = target: mature heavy chain paired with the inferred naive light chain (matVH 0VL) (human)
[3] = target: mature heavy chain paired with Int5∆FWR2-FWR3VL (human)
mature heavy chain paired with Int5∆FWR2-FWR3VL (human), sequence (heavy, as listed by the source): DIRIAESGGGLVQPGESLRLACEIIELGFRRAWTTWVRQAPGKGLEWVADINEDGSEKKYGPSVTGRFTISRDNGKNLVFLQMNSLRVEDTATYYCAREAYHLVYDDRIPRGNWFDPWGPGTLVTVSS

mature heavy chain paired with the inferred naive light chain (matVH 0VL) (human), sequence (heavy, as listed by the source): as above
∆CDR1VH heavy chain chimera paired with the mature light chain (human), sequence (light, as listed by the source): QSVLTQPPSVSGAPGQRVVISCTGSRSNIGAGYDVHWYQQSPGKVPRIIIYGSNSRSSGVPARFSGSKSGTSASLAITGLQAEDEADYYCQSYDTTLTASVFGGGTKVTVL

Substance: BG505.SOSIP.664 trimer (from UniProt Q2N0S6 1-860; Q2N0S6 1-860) (complex)
- Kd [1]: 40.6 nM
- Kd [2]: 89.6 nM
- Kd [3]: 1300 nM

Source: publication PMC8376252
